PMC3181075
Where two headings read alike, the source gives them in different places.

How the values were obtained:
[1] = target: human carbonic anhydrase XII, catalytic domain (human)
[2] = target: human carbonic anhydrase XII, catalytic domain (human); assay: other fluorescence titration

A Kd [1] of 3.3 µM and a Kd [2] of 6 µM were found for polylysine (peptide) in this work.
